The target in the experiment is HSA/hEPO (83.5 Kd) (human). Briefly: double-antibody sandwich ELISA (R&D Systems EPO kit), against the recombinant human EPO standard. A general note: In an ELISA, binding on a coated surface is turned into a signal by an enzyme label.

The results in this text go back to US20040063635A1.

With “anti-EPO antibodies of the EPO ELISA kit from R&D Systems (tool reagent)”, the activity compared with the standard (of the activity of the EPO standard) was found to be 0.1.
